According to paper PMC10397247:

Columns and labels:
[1] = biological target: T1, 4H477-bA; assay: two-hybrid library CCNG1;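 note: natural log of median RNA to DNA barcode read ratio; higher means stronger binding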
T1 chain: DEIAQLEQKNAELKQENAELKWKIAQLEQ

[2] = biological target: T2, 4H492-bA; assay: two-hybrid library CCNG1;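 note: natural log of median RNA to DNA barcode read ratio; higher means stronger binding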
T2 chain: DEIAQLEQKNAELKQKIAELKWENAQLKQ

[3] = biological target: T3, 4H72-bN; assay: two-hybrid library CCNG1;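 note: natural log of median RNA to DNA barcode read ratio; higher means stronger binding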
T3 chain: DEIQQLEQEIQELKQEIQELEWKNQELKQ

[4] = biological target: T4, 4H741-bA; assay: two-hybrid library CCNG1;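 note: natural log of median RNA to DNA barcode read ratio; higher means stronger binding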
T4 chain: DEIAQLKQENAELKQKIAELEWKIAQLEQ

[5] = biological target: T5, 4H575-bH; assay: two-hybrid library CCNG1;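 note: natural log of median RNA to DNA barcode read ratio; higher means stronger binding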
T5 chain: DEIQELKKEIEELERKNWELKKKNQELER

[6] = biological target: T6, 4H683-bH; assay: two-hybrid library CCNG1;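 note: natural log of median RNA to DNA barcode read ratio; higher means stronger binding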
T6 chain: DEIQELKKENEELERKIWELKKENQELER

[7] = biological target: T7, 4H754-bH; assay: two-hybrid library CCNG1
T7 chain: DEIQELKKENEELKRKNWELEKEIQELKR

[8] = biological target: T8, 4H780-bH; assay: two-hybrid library CCNG1
T8 chain: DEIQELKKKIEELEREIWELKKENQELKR

[9] = biological target: T9, 4H797-bH; assay: two-hybrid library CCNG1
T9 chain: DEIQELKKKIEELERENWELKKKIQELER

[10] = biological target: T10, 4H855-bH; assay: two-hybrid library CCNG1
T10 chain: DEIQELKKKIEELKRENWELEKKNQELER

[11] = biological target: T11, 4H918-bH; assay: two-hybrid library CCNG1
T11 chain: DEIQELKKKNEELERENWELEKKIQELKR

[12] = biological target: T12, 4H953-bH; assay: two-hybrid library CCNG1
T12 chain: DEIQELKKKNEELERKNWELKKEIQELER

[13] = biological target: T13, 4H968-bH; assay: two-hybrid library CCNG1
T13 chain: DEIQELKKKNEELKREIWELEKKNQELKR

[14] = biological target: T14, 4H584-bH; assay: two-hybrid library CCNG1
T14 chain: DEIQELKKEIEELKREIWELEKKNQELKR

[15] = biological target: T15, 4H619-bH; assay: two-hybrid library CCNG1
T15 chain: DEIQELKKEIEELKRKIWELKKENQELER

[16] = biological target: T16, 4H850-bH; assay: two-hybrid library CCNG1
T16 chain: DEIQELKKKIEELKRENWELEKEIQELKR

[17] = biological target: T17, 4H906-bH; assay: two-hybrid library CCNG1
T17 chain: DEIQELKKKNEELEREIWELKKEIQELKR

[18] = biological target: T18, 4H570-bH; assay: two-hybrid library CCNG1
T18 chain: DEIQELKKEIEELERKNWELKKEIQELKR

[19] = biological target: T19, 4H967-AA; assay: two-hybrid library CCmax
T19 chain: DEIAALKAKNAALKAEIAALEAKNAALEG

[20] = biological target: T20, 4H626-bH; assay: two-hybrid library CCNG1
T20 chain: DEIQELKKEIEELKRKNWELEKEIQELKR

B1: 4H477-bA (peptide)
chain: DEIAQLEQKNAELKQENAELKWKIAQLEQ
interaction score [1]: -0.249 | interaction score [2]: -0.749 | interaction score [3]: -3.66 | interaction score [4]: -1.37

B2: 4H575-bH (peptide)
chain: DEIQELKKEIEELERKNWELKKKNQELER
interaction score [5]: -0.14 | interaction score [6]: -0.243 | interaction score [7]: -0.631 | interaction score [8]: -0.754 | interaction score [9]: -0.434 | interaction score [10]: 1.37 | interaction score [11]: -0.438 | interaction score [12]: -0.118 | interaction score [13]: -1.01

B3: 4H584-bH (peptide)
chain: DEIQELKKEIEELKREIWELEKKNQELKR
interaction score [14]: 1.18 | interaction score [15]: 1.2 | interaction score [16]: 0.297 | interaction score [17]: 0.202

B4: 4H570-bH (peptide)
chain: DEIQELKKEIEELERKNWELKKEIQELKR
interaction score [18]: 1.19 | interaction score [14]: -1.16 | interaction score [15]: -0.75 | interaction score [16]: 1.01 | interaction score [17]: 0.224

B5: 4H967-AA (peptide)
chain: DEIAALKAKNAALKAEIAALEAKNAALEG
interaction score [19]: -0.481

B6: 4H626-bH (peptide)
chain: DEIQELKKEIEELKRKNWELEKEIQELKR
interaction score [20]: 0.932 | interaction score [17]: -0.349
